Test results published in patent US20240327505A1 (published 2024).

Legend:
[1] = target: T1, SARS-CoV-2 spike S2 protein (SARS-CoV-2, UniProt P0DTC2 686-1213); experiment: BLI, as in Example 4
T1 construct: domain: S2

[2] = target: SARS-CoV-1 spike protein on pseudovirus (SARS-CoV-1, UniProt P59594 14-1255); experiment: cell-based or functional assay
[3] = target: SARS-CoV-2 Wuhan-1 full-length Spike protein on pseudovirus (SARS-CoV-2, UniProt P0DTC2 14-1273); experiment: cell-based or functional assay
[4] = target: SARS-CoV-2 spike protein on fully infectious (replication-competent) SARS-CoV-2 virus (SARS-CoV-2, UniProt P0DTC2 14-1273); experiment: cell-based or functional assay
SARS-CoV-2 S2 protein = SARS-CoV-2 S2 protein (SARS-CoV-2, UniProt P0DTC2 686-1213)
[5] = target: SARS-CoV-2 Nucleocapsid (N) protein (SARS-CoV-2, UniProt P0DTC9 1-419)
[6] = target: SARS-CoV-2 Nucleocapsid (N) protein (SARS-CoV-2, UniProt P0DTC9 1-419); remark: listed apart in the source
[7] = target: SARS-CoV-2 spike S2 protein (SARS-CoV-2, UniProt P0DTC2 686-1213)
[8] = target: SARS-CoV-2 Spike (S) trimer (SARS-CoV-2, UniProt P0DTC2 16-1213); experiment: ELISA on coated S trimer, 1:50
[9] = target: SARS-CoV-2 Envelope (E) protein (SARS-CoV-2, UniProt P0DTC4 1-75); experiment: ELISA, Envelope

B1: AB-009270 (antibody, V domains shown)
VH: QMQLVQSGPEVKKPGTSVKVSCKASGFTFTSSAMQWVRQARGQRLEWIGWIVVGSGNTNYAQKFQERVTITRDMSTSTAYMELSSLRSEDTAVYYCAVNYCSSTSCYDAFDIWGQGTMVTVSS
VL: not shown
With B1 the binding result [1] was “no binding”, the “Pseudovirus Neturalization” value [2] was > 50 µg/mL and the “Pseudovirus Neturalization” value [3] was 0.065 µg/mL. The “Neutralization (Infectious virus; (µg/mL))” value (from here on “Neutralization”) [4] was 1.37 µg/mL.

B2: AB-010020 (antibody, V domains shown)
VH: QMQLVQSGPEVKKPGTSVKVSCKASGFTFTSSAVQWVRQARGQRLEWIGWIVVGSGNTNYAQKFQERVTITRDMSTSTAYMELSSLRSEDTAVYYCAAPACSSTSCYDGFDIWGQGTMVTVSS
VL: not shown
For B2, the binding result [1] was “no binding”, the “Pseudovirus Neturalization” value [2] was > 50 µg/mL and the “Pseudovirus Neturalization” value [3] was 0.004 µg/mL.

B3: AB-010021 (antibody, V domains shown)
VH: QMQLVQSGPEVKKPGTSVKVSCKASGFTFTSSAVQWVRQARGQRLEWIGWIVVGSGNTNYAQKFQERVTITRDMSTSTAYMELSSLRSEDTAVYYCAAVYCSGGSCLDAFDIWGQGTMVTVSS
VL: not shown
notes: also called AB-0010021
For B3, the binding result [1] was “no binding”, the “Pseudovirus Neturalization” value [2] was > 50 µg/mL and the “Pseudovirus Neturalization” value [3] was 1.56 µg/mL.

B4: AB-009613 (antibody, V domains shown)
VH: EVQLVESGGGLIQPGGSLRLSCAASGFTVSSNYMSWVRQAPGKGLEWVSVIYSGGSTYYADSVKGRFTISRDNSKNTLYLQMNSLRAEDTAVYYCARDYGDFYFDYWGQGTLVTVSS
VL: not shown
In the case of B4, the binding result [1] is reported as “no binding”, the “Pseudovirus Neturalization” value [2] is reported as > 50 µg/mL and the “Pseudovirus Neturalization” value [3] is reported as 1.53 µg/mL. The “Neutralization” value [4] was 3.4 µg/mL.

B5: AB-009610 (antibody, V domains shown)
VH: QVQLVQSGAEVKKPGSSVKVSCKASGGTFSNYAISWVRQAPGQGLEWMGRIIPILGIANYAQKFQGRVTITADKSTSTAYMELSSLRSEDTAVYYCATTPYYYDSSGYYLDYWGQGTLVTVSS
VL: not shown
For B5, the binding result [1] was “no binding”, the “Pseudovirus Neturalization” value [2] was > 50 µg/mL and the “Pseudovirus Neturalization” value [3] was 6.77 µg/mL. The “Neutralization” value [4] was 6.25 µg/mL.

B6: AB-009271 (antibody, V domains shown)
VH: EVQLVESGGGLIQPGGSLRLSCAASGFIVSSNYMSWVRQAPGKGLEWVSVIYSGGSTYYADSVKGRFTISRDNSKNTLYLQMNSLRAEDTAVYYCARDYGDFYFDYWGQGTLVTVSS
VL: EIVMTQSPATLSVSPGERATLSCRASQSVSSNLAWYQQKPGQAPRLLIYGASTRATGIPARFSGSGSGTEFTLTISSLQSEDFAVYYCQQYYNWPRTFGQGTKVEIK
With B6 the binding result [1] was “no binding”, the “Pseudovirus Neturalization” value [2] was > 50 µg/mL and the “Pseudovirus Neturalization” value [3] was 0.058 µg/mL. For the same binder, the “Neutralization” value [4] was 0.181 µg/mL.

B7: AB-009620 (antibody, V domains shown)
VH: QITLKESGPTLVKPTQTLTLTCTFSGFSLSTSGVGVGWIRQPPGKALEWLALIYWDDDKRYSPSLKSRLTITKDTSKNQVVLTMTNMDPVDTATYYCAHHEVATVFDYWGQGTLVTVSS
VL: QSALTQPASVSGSPGQSITISCTGTSSDVGAYNYVSWYQQHPGKAPKLMIYEVSNRPSGVSNRFSGSKSGNTASLTISGLQAEDEADYYCSSYTSSSTVFGGGTKLTVL
With B7 the binding result [1] was “no binding”, the “Pseudovirus Neturalization” value [2] was > 50 µg/mL and the “Pseudovirus Neturalization” value [3] was 1.04 µg/mL. For the same binder, the “Neutralization” value [4] was 13.3 µg/mL.

B8: AB-009769 (antibody, V domains shown)
VH: EVQLVESGGGLVQPGGSLRLSCAASGFTFSSYWMSWVRQAPGKGLEWVANIKQDGSEKYYVDSVKGRFTISRDNAKNSLYLQMNSLRAEDTAVYYCARSPEVLWFGDPVLDNWFDPWGQGTLVTVSS
VL: SYELTQPPSVSVSPGQTARITCSGDALPKQYAYWYQQKPGQAPVLVIYKDSERPSGIPERFSGSSSGTTVTLTISGVQAEDEADYYCQSADSSGTYPVVFGGGTKLTVL
B8 was tested, and the “Pseudovirus Neturalization” value [2] was > 50 µg/mL, the “Pseudovirus Neturalization” value [3] was > 50 µg/mL and the “Neutralization” value [4] was 24.5 µg/mL.

B9: AB-009760 (antibody, V domains shown)
VH: EVQLVQSGAEVKKPGESLKISCKGSGYSFTSYWIGWVRQMPGKGLEWMGIIYPGDSDTRYSPSFQGQVTISADKSISTAYLQWSSLKASDTAMYYCARSRSSDYFDYWGQGTLVTVSS
VL: not shown
B9 was tested, and the “Pseudovirus Neturalization” value [2] was > 50 µg/mL, the “Pseudovirus Neturalization” value [3] was 4.1 µg/mL and the “Neutralization” value [4] was 32.8 µg/mL.

B10: AB-009627 (antibody, V domains shown)
VH: QVQLQQWGAGLLKPSETLSLTCAVYGGSFSGYYWSWIRQPPGKGLEWIGEINHSGSTNYNPSLKSRVTISVDTSKNQFSLKLSSVTAADTAVFYCARGGYSSSWYGEKYWFDPWGQGTLVTVSS
VL: QSALTQPRSVSGSPGQSVTISCTGTSSDVGGYNYVSWYQQHPGKAPKLMIYDVSKRPSGVPDRFSGSKSGNTASLTISGLQAEDEADYYCCSYAGSPYVFGTGTKVTVL
B10 showed a Kd (SARS-CoV-2 S2 protein) of 0.246 nM, a koff (SARS-CoV-2 S2 protein) of 2.85e-07 s⁻¹ and a kon (SARS-CoV-2 S2 protein) of 1160 M⁻¹ s⁻¹.

B11: AB-009734 (antibody, V domains shown)
VH: QVHLVQSGAEVKTPGASVRVSCKASGYTFTSHYMHWVRQAPGQGLEWMGLINPSGSGTAYPQHFQGRVTMTRDTSTTTDYMDLSSLRSEDTAMYFCARMERSGAFDLWGQGTMVTVSS
VL: EIVLTQSPGTLSLSPGERATLSCRASQTISSRYLAWYYQKPGQAPRLLIQGSSIRATGIPDRFSGSGSGTDFTLTISRLEPEDFAVYYCQHYGSSPPMYTFGQGTKLEIK
B11 showed a Kd [5] of 22.2 nM, a koff [5] of 0.000979 s⁻¹ and a kon [5] of 44000 M⁻¹ s⁻¹. The Kd (SARS-CoV-2 S2 protein) was 12.4 nM, the koff (SARS-CoV-2 S2 protein) was 0.000103 s⁻¹ and the kon (SARS-CoV-2 S2 protein) was 8280 M⁻¹ s⁻¹.

B12: AB-009778 (antibody, V domains shown)
VH: QLQLQESGPGLVKPSETLSLTCTVSGGSISSSSYYWGWIRQPPGKGLEWIGSIYYSGSTYYNPSLKSRVTISVDTSKNQFSLKLSSVTAADTAVYYCARQFRRWLQLGPSYFDYWGQGTLVTVSS
VL: not shown
For B12, the Kd [5] was 48.5 nM, the koff [5] was 0.000866 s⁻¹ and the kon [5] was 17800 M⁻¹ s⁻¹.

B13: AB-009791 (antibody, V domains shown)
VH: QLQLQESGPGLVKPSETLSLTCTVSGGSISSSSYYWGWIRQPPGKGLEWIGSIYYSGSTYYNPSLKSRVTISVDTSKNQFSLKLSSVTAADTAVYYCAREPRRVKQWLVVPYYYMDVWGKGTTVTVSS
VL: not shown
Binder B13 has a Kd [5] of 4.61 nM, a koff [5] of 8.35e-05 s⁻¹ and a kon [5] of 18100 M⁻¹ s⁻¹.

B14: AB-009799 (antibody, V domains shown)
VH: QVQLVQSGAEVKKPGASVKVSCKASGYTFTSYDINWVRQATGQGLEWMGWMNPNSGNTGYAQKFQGRVTMTRNTSISTAYMELSSLRSEDTAVYYCARGRLRITIFNRVYYFDYWGQGTLVTVSS
VL: not shown
B14 showed a Kd [5] of 19.6 nM, a koff [5] of 0.000265 s⁻¹ and a kon [5] of 13600 M⁻¹ s⁻¹.

B15: AB-009095 (antibody, V domains shown)
VH: EVQLVQSGAEVKKPGESLIISCTGSGYTFATFWITWVRQMPGKGLEWLGRIDPSDSYTNYNPSFQGHVTVSVDRSINTAYLELTSLKASDTAIYYCARQMYNTGWPIPNYSDYWGQGTLVTVSS
VL: QSALTQPPSASGSPGQSVTISCAGASTDVGVYNFVSWYQQHPGKAPKLIIFDVNKRPSGVPDRFSGSKSGNTASLTVSGLQAEDEADYYCSSYEVGNNFVFGTGTKVTVL
With B15 the Kd [6] was 0.833 nM, the koff [6] was 5.93e-05 s⁻¹ and the kon [6] was 71100 M⁻¹ s⁻¹. It also gave a Kd [7] of 0.176 nM, a koff [7] of 2.15e-07 s⁻¹ and a kon [7] of 1220 M⁻¹ s⁻¹.

B16: AB-009112 (antibody, V domains shown)
VH: QVQLVESGGGVVQPGRSLRLSCAASGFTFSSYAMHWVRQAPGKGLEWVAVISYDGSNKYYADSVKGRFTISRDNSKNTLYLQMNSLRAEDTAVYYCASSLVGATKSYYYYYYGMDVWGQGTTVTVSS
VL: SYELTQPLSVSVALGQTARITCGGNNIGSKNVHWYQQKPGQAPVLVIYRDSNRPSGIPERFSGSNSGNTATLTISRAQAGDEADYYCQVWDSSSVVFGGGTKLTVL
Binder B16 has a Kd [6] of 32.7 nM.

B17: AB-009119 (antibody, V domains shown)
VH: EVQLVESGGGLVQPGGSLKLSCAASGFTFSGSAMHWVRQASGKGLEWVGRIRSKANSYATAYAASVKGRFTISRDDSKNTAYLQMNSLKTEDTAVYYCTRHGTTVNWGQGTLVTVSS
VL: not shown
Work on B17 yielded a Kd [6] of 7.35 nM, a koff [6] of 0.000647 s⁻¹ and a kon [6] of 88000 M⁻¹ s⁻¹. It also gave a Kd [7] of 0.0583 nM, a koff [7] of 2.56e-07 s⁻¹ and a kon [7] of 4390 M⁻¹ s⁻¹.

B18: AB-009213 (antibody, V domains shown)
VH: EVQLVESGGGLVKPGGSLRLSCAASGFTFSSYSMNWVRQAPGKGLEWVSSISSSSSYIYYADSVKGRFTISRDNAKNSLYLQMNSLRAEDTAVYYCARDKLREDGDYDDAFDIWGQGTMVTVSS
VL: not shown
B18 showed a Kd [6] of 10 nM, a koff [6] of 0.00112 s⁻¹ and a kon [6] of 112000 M⁻¹ s⁻¹.

B19: AB-009357 (antibody, V domains shown)
VH: QLQLQESGPGLVKPSETLSLTCTVSGGSISSSSYYWGWIRQPPGKGLEWIGSIYYSGSTYYNPSLKSRVTISVDTSKNQFSLKLSSVTAADTAVYYCARHPLSSITIFGVVKREYYFDYWGQGTLVTVSS
VL: DIQMTQSPSSVSASVGDRVTITCRASQGISSWLAWYQQKPGKAPKLLIYAASSLQSGVPSRFSGSGSGTDFTLTISSLQPEDFATYYCQQANSFPLLFGGGTKVEIK
In the case of B19, the “OD 450 nm” value [8] is reported as 2.77 OD and the “OD 450 nm” value [9] is reported as 0.221 OD.

B20: AB-009335 (antibody, V domains shown)
VH: QVQLQESGPGLVKPSETLSLTCTVSGGSISSHYWSWIRQPPGKGLEWIGYIYYSGSTNYNPSLKSRVTISVDTSKNQFSLKLSSVTAADTAVYYCARVRREWLAAYFYYGMDVWGQGTTVTVSS
VL: DIQMTQSPSSLSASVGDRVTITCRASQGISNYLAWYQQKPGKVPKLLIYAASTLQSGVPSRFSGSGSGTDFTLTISSLQPEDVATYYCQKYNSAPLTFGGGTKVEIK
B20 was tested, and the “OD 450 nm” value [8] was 1.03 OD and the “OD 450 nm” value [9] was 0.4 OD.
